The text below walks through data of the supplement of paper PMC9112550, “Optimization of the antimicrobial peptide Bac7 by deep mutational scanning” (BMC Biology, 2022).
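Note: peptides expressed intracellularly from a pBAD plasmid library in pooled LB shake-flask culture, induced with 0.3% L-arabinose, DNA abundance read by NGS, three biological replicates, DESeq2 with apeglm shrinkage.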

The test system of the data set is Escherichia coli TOP10. The data set is described as follows: shrunken log2 fold change of peptide-encoding DNA abundance (4.5 h post-induction vs induction); higher = less antimicrobial activity (less host growth inhibition). The following applies: time post-induction: 4.5 h; library: site-saturation at positions 5, 18, 19, 20.
RRIRSRPPRLPRPRPRPARNPRP: the “shrunken log2 fold change” value amounted to 0.611.

Consider RRIRDRPPRLPRPRPRPIIIPRP, for which the “shrunken log2 fold change” value is -0.153.

In the case of RRIRRRPPRLPRPRPRPFMDPRP, the “shrunken log2 fold change” value is -0.148.

As to RRIRLRPPRLPRPRPRPFDNPRP, the “shrunken log2 fold change” value is -0.0289. Consider RRIRYRPPRLPRPRPRPWTRPRP, for which the “shrunken log2 fold change” value was found to be 0.0101. Regarding RRIRTRPPRLPRPRPRPAEIPRP, the “shrunken log2 fold change” value worked out at 0.083. In the case of RRIRHRPPRLPRPRPRPMYTPRP it was 0.588; in that of RRIRSRPPRLPRPRPRPCMIPRP, -0.389; in that of RRIRARPPRLPRPRPRPQAPPRP, 0.238. As to RRIRMRPPRLPRPRPRPASGPRP, the “shrunken log2 fold change” value was found to be 0.652.

On to RRIRCRPPRLPRPRPRPRQTPRP, for which the “shrunken log2 fold change” value worked out at 0.781. As for RRIRGRPPRLPRPRPRPIVWPRP, the “shrunken log2 fold change” value is 0.381. On to RRIRKRPPRLPRPRPRPWTIPRP, for which the “shrunken log2 fold change” value turned out to be 0.0185.

RRIRMRPPRLPRPRPRPYHCPRP: the “shrunken log2 fold change” value was -0.72.

As for RRIRARPPRLPRPRPRPQEHPRP, the “shrunken log2 fold change” value amounted to 0.515. RRIRYRPPRLPRPRPRPTANPRP: the “shrunken log2 fold change” value is -0.602. RRIRCRPPRLPRPRPRPSNKPRP: the “shrunken log2 fold change” value is -0.44.

Consider RRIRSRPPRLPRPRPRPPPRPRP, for which the “shrunken log2 fold change” value turned out to be 1.09. Take RRIRRRPPRLPRPRPRPEHMPRP: the “shrunken log2 fold change” value stood at 0.14. In the case of RRIRMRPPRLPRPRPRPFVCPRP it was 0.137; in that of RRIRPRPPRLPRPRPRPTTCPRP, 0.262; in that of RRIRIRPPRLPRPRPRPKTEPRP, -0.413. In the case of RRIRYRPPRLPRPRPRPMSQPRP, the “shrunken log2 fold change” value is -0.0802.

With RRIRTRPPRLPRPRPRPAMFPRP, the “shrunken log2 fold change” value was -0.686. With RRIRTRPPRLPRPRPRPQDCPRP, the “shrunken log2 fold change” value stood at 0.0249.

For RRIRTRPPRLPRPRPRPAHRPRP, the “shrunken log2 fold change” value was 0.0856. For RRIRARPPRLPRPRPRPEMHPRP, the “shrunken log2 fold change” value is 1.1. Consider RRIRKRPPRLPRPRPRPFEHPRP, for which the “shrunken log2 fold change” value is -0.0326. Take RRIRMRPPRLPRPRPRPRLVPRP: the “shrunken log2 fold change” value amounted to 0.76. Take RRIRLRPPRLPRPRPRPMVEPRP: the “shrunken log2 fold change” value is -0.0178.

For RRIRERPPRLPRPRPRPMNHPRP, the “shrunken log2 fold change” value is -0.811.

Consider RRIRQRPPRLPRPRPRPRYTPRP, for which the “shrunken log2 fold change” value is -0.126. With RRIRGRPPRLPRPRPRPGCCPRP, the “shrunken log2 fold change” value was found to be 1.2. With RRIRPRPPRLPRPRPRPLDEPRP, the “shrunken log2 fold change” value was found to be 0.102. As for RRIRVRPPRLPRPRPRPQKKPRP, the “shrunken log2 fold change” value is -0.117.

For the sequence RRIRFRPPRLPRPRPRPMNLPRP, the “shrunken log2 fold change” value was -0.623. Take RRIRWRPPRLPRPRPRPHWIPRP: the “shrunken log2 fold change” value was -0.434.

As to RRIRGRPPRLPRPRPRPGHCPRP, the “shrunken log2 fold change” value came out at 0.4. For RRIRRRPPRLPRPRPRPQMLPRP, the “shrunken log2 fold change” value amounted to 0.246. In the case of RRIRYRPPRLPRPRPRPAVDPRP it was -0.0338; in that of RRIRQRPPRLPRPRPRPNGMPRP, -0.0839.

On to RRIRYRPPRLPRPRPRPFWNPRP, for which the “shrunken log2 fold change” value was -0.178. Consider RRIRWRPPRLPRPRPRPFGIPRP, for which the “shrunken log2 fold change” value is -0.115.

Take RRIRVRPPRLPRPRPRPCLIPRP: the “shrunken log2 fold change” value was -0.641. In the case of RRIRKRPPRLPRPRPRPSHFPRP it was 0.355; in that of RRIRFRPPRLPRPRPRPFFWPRP, 0.118. For the sequence RRIRQRPPRLPRPRPRPYQTPRP, the “shrunken log2 fold change” value was -0.421. With RRIRSRPPRLPRPRPRPERPPRP, the “shrunken log2 fold change” value is 0.384. In the case of RRIRYRPPRLPRPRPRPYTQPRP it was -0.273; in that of RRIRLRPPRLPRPRPRPSKDPRP, -0.364; in that of RRIRARPPRLPRPRPRPARNPRP, 0.364. Regarding RRIRGRPPRLPRPRPRPCAWPRP, the “shrunken log2 fold change” value came to 0.167.

Regarding RRIRMRPPRLPRPRPRPDGDPRP, the “shrunken log2 fold change” value is 0.0211. For RRIRIRPPRLPRPRPRPGVNPRP, the “shrunken log2 fold change” value was -0.319.

Turning to RRIRNRPPRLPRPRPRPLRVPRP, the “shrunken log2 fold change” value turned out to be 0.896.

Consider RRIRLRPPRLPRPRPRPIAFPRP, for which the “shrunken log2 fold change” value was -0.14. As to RRIRWRPPRLPRPRPRPRIHPRP, the “shrunken log2 fold change” value was found to be 0.178. As for RRIRRRPPRLPRPRPRPPMTPRP, the “shrunken log2 fold change” value was found to be 0.43. Take RRIRKRPPRLPRPRPRPVFAPRP: the “shrunken log2 fold change” value stood at 2.02. Consider RRIRQRPPRLPRPRPRPKSMPRP, for which the “shrunken log2 fold change” value is -0.179. On to RRIRERPPRLPRPRPRPIAPPRP, for which the “shrunken log2 fold change” value stood at 0.235. RRIRARPPRLPRPRPRPLQYPRP: the “shrunken log2 fold change” value turned out to be 0.00717. In the case of RRIRRRPPRLPRPRPRPRRFPRP, the “shrunken log2 fold change” value was found to be 0.352. In the case of RRIRRRPPRLPRPRPRPSDEPRP, the “shrunken log2 fold change” value was -0.0356. On to RRIRIRPPRLPRPRPRPEQEPRP, for which the “shrunken log2 fold change” value came out at 0.0276.

RRIRNRPPRLPRPRPRPNIGPRP: the “shrunken log2 fold change” value is -0.00968. RRIRKRPPRLPRPRPRPFKRPRP: the “shrunken log2 fold change” value was -0.00663. Turning to RRIRKRPPRLPRPRPRPYETPRP, the “shrunken log2 fold change” value was 0.00149. For the sequence RRIRARPPRLPRPRPRPKMEPRP, the “shrunken log2 fold change” value stood at 0.229. Take RRIRNRPPRLPRPRPRPLKYPRP: the “shrunken log2 fold change” value was -0.0547. In the case of RRIRVRPPRLPRPRPRPGFKPRP it was -0.0945. Regarding RRIRDRPPRLPRPRPRPRQIPRP, the “shrunken log2 fold change” value was -0.233.

Take RRIRKRPPRLPRPRPRPYRPPRP: the “shrunken log2 fold change” value was determined as 0.0318. For RRIRYRPPRLPRPRPRPYGSPRP, the “shrunken log2 fold change” value is -0.843. In the case of RRIRSRPPRLPRPRPRPDNSPRP it was -0.13. As for RRIRPRPPRLPRPRPRPVVVPRP, the “shrunken log2 fold change” value was -0.0997.

With RRIRSRPPRLPRPRPRPFNMPRP, the “shrunken log2 fold change” value was -0.907. In the case of RRIRIRPPRLPRPRPRPEEAPRP it was 0.215; in that of RRIRSRPPRLPRPRPRPTVRPRP, -0.00791; in that of RRIRTRPPRLPRPRPRPWDKPRP, -0.0249. In the case of RRIRVRPPRLPRPRPRPLCHPRP it was -0.364; in that of RRIRGRPPRLPRPRPRPKAIPRP, 0.363; in that of RRIRARPPRLPRPRPRPNRGPRP, 0.108. Consider RRIRWRPPRLPRPRPRPTFIPRP, for which the “shrunken log2 fold change” value is -0.417.

For the sequence RRIRHRPPRLPRPRPRPPTSPRP, the “shrunken log2 fold change” value is -0.128. For the sequence RRIRARPPRLPRPRPRPGQWPRP, the “shrunken log2 fold change” value is 0.466. In the case of RRIRWRPPRLPRPRPRPVVTPRP it was 0.338; in that of RRIRHRPPRLPRPRPRPKKAPRP, 0.0601; in that of RRIRQRPPRLPRPRPRPGCRPRP, 0.342. With RRIRNRPPRLPRPRPRPLFWPRP, the “shrunken log2 fold change” value is 0.0854. For RRIRPRPPRLPRPRPRPQPVPRP, the “shrunken log2 fold change” value is 0.212.

Consider RRIRMRPPRLPRPRPRPRSAPRP, for which the “shrunken log2 fold change” value is 1.36. As to RRIRNRPPRLPRPRPRPNTWPRP, the “shrunken log2 fold change” value was -0.382. For RRIRVRPPRLPRPRPRPMEDPRP, the “shrunken log2 fold change” value amounted to 0.0593.

Take RRIRDRPPRLPRPRPRPVVDPRP: the “shrunken log2 fold change” value came out at 0.104. With RRIRNRPPRLPRPRPRPQIFPRP, the “shrunken log2 fold change” value is -0.27. In the case of RRIRMRPPRLPRPRPRPSTFPRP, the “shrunken log2 fold change” value is 0.147. For RRIRARPPRLPRPRPRPCWDPRP, the “shrunken log2 fold change” value was -0.102. Turning to RRIRYRPPRLPRPRPRPCHMPRP, the “shrunken log2 fold change” value is -0.218.

Consider RRIRPRPPRLPRPRPRPHPLPRP, for which the “shrunken log2 fold change” value was found to be 0.0451. RRIRWRPPRLPRPRPRPYDPPRP: the “shrunken log2 fold change” value is -0.126.

As to RRIRERPPRLPRPRPRPDNPPRP, the “shrunken log2 fold change” value is -0.0894.

For RRIRVRPPRLPRPRPRPSFHPRP, the “shrunken log2 fold change” value is -0.439.

In the case of RRIRERPPRLPRPRPRPDNNPRP, the “shrunken log2 fold change” value was -0.237.

In the case of RRIRWRPPRLPRPRPRPRFVPRP, the “shrunken log2 fold change” value was determined as 0.139. RRIRVRPPRLPRPRPRPTFEPRP: the “shrunken log2 fold change” value was -0.106. As to RRIRGRPPRLPRPRPRPQMQPRP, the “shrunken log2 fold change” value was 1.04. Turning to RRIRNRPPRLPRPRPRPYNCPRP, the “shrunken log2 fold change” value is -0.385. Take RRIRARPPRLPRPRPRPSQYPRP: the “shrunken log2 fold change” value was -0.00629. As for RRIRMRPPRLPRPRPRPEIFPRP, the “shrunken log2 fold change” value was 1.27.

In the case of RRIRPRPPRLPRPRPRPPQCPRP, the “shrunken log2 fold change” value is 0.228.

On to RRIRFRPPRLPRPRPRPADAPRP, for which the “shrunken log2 fold change” value stood at 0.147. For RRIRIRPPRLPRPRPRPNGTPRP, the “shrunken log2 fold change” value was -0.201. In the case of RRIRYRPPRLPRPRPRPFSEPRP it was 0.41.

For the sequence RRIRGRPPRLPRPRPRPECWPRP, the “shrunken log2 fold change” value came out at 1.92. On to RRIRSRPPRLPRPRPRPTSVPRP, for which the “shrunken log2 fold change” value was determined as 0.00616. With RRIRIRPPRLPRPRPRPDHFPRP, the “shrunken log2 fold change” value is -0.0602.

For the sequence RRIRIRPPRLPRPRPRPMWMPRP, the “shrunken log2 fold change” value was -0.0849. With RRIRTRPPRLPRPRPRPCAEPRP, the “shrunken log2 fold change” value is -0.11. For RRIRQRPPRLPRPRPRPAQLPRP, the “shrunken log2 fold change” value amounted to 0.0104. RRIRTRPPRLPRPRPRPFMWPRP: the “shrunken log2 fold change” value was -0.119. As to RRIRMRPPRLPRPRPRPWPNPRP, the “shrunken log2 fold change” value turned out to be 0.25.

In the case of RRIRQRPPRLPRPRPRPSCVPRP, the “shrunken log2 fold change” value was -0.478. For RRIRVRPPRLPRPRPRPYFKPRP, the “shrunken log2 fold change” value is -0.49. On to RRIRERPPRLPRPRPRPHYHPRP, for which the “shrunken log2 fold change” value was -0.356.
